Test results reported in the Human Domainome abundance scans (Beltran et al. 2025).
± gives the uncertainty stated by the source.

B1: Pyruvate dehydrogenase protein X component, mitochondrial, residues 181 to 227; numbered along this chain, O00330 (parent)
chain: RFRLSPAARNILEKHSLDASQGTATGPRGIFTKEDALKLVQLKQTGK

Variants of: B1
Assay: abundance fitness (aPCA) (normalised: wild type 0, dead -1); higher = more abundant; growth selection in yeast, the domain comes from the species named
Settings: Homo sapiens

| Variant | abundance fitness |
| --- | --- |
| RFRLSPAARNILEKHSLDASQGTATGVRGIFTKEDALKLVQLKQTGK [P27V] | -0.515 ± 0.058 |
| RFRLSPAARNILEKHSLDASQGTATGSRGIFTKEDALKLVQLKQTGK [P27S] | -0.213 ± 0.043 |
| RFRLSPAARNILEKHSLDASQGTATGYRGIFTKEDALKLVQLKQTGK [P27Y] | -0.689 ± 0.13 |
| RFRLSPAARNILEKHELDASQGTATGPRGIFTKEDALKLVQLKQTGK [S16E] | 0.035 ± 0.051 |
| RFRLSPAARNILEKHVLDASQGTATGPRGIFTKEDALKLVQLKQTGK [S16V] | -0.613 ± 0.049 |
| RFRLSPAARNILEKHFLDASQGTATGPRGIFTKEDALKLVQLKQTGK [S16F] | -0.416 ± 0.084 |
| RFRLSPAARNILEKHGLDASQGTATGPRGIFTKEDALKLVQLKQTGK [S16G] | 0.244 ± 0.043 |
| RFRLSPAARNILEKHSLDASQGNATGPRGIFTKEDALKLVQLKQTGK [T23N] | -0.195 ± 0.066 |
| RFRLSPAARNILEKHSLDASQGLATGPRGIFTKEDALKLVQLKQTGK [T23L] | -0.258 ± 0.06 |
| RFRLSPAARNILEKHSLDASQGSATGPRGIFTKEDALKLVQLKQTGK [T23S] | -0.138 ± 0.044 |
| RFRLSPAARNILEKHSLDASQGTATGPRGIFTKEDAMKLVQLKQTGK [L37M] | -0.183 ± 0.061 |
| RFRLSPAARNILEKHSLDASQGTATGPRGIFTKEDATKLVQLKQTGK [L37T] | -0.072 ± 0.099 |
| RFRLSPAARNILEKHSLDASQGTATGPRGIFTKEDAFKLVQLKQTGK [L37F] | -0.402 ± 0.094 |
| RFRLSPAARNILEKHSLDASQGTATGPRGIFTKEDASKLVQLKQTGK [L37S] | -0.286 ± 0.078 |
| RFRLSPAARLILEKHSLDASQGTATGPRGIFTKEDALKLVQLKQTGK [N10L] | 0.064 ± 0.048 |
| RFRLSPAARNILEKHSLDASQGTATGPRGIFTKEDALKLVQLWQTGK [K43W] | -0.608 ± 0.15 |
| RFRLSPAARNILEKHSLDASQGTATGPRGIFTKEDALKLVQLSQTGK [K43S] | 0.013 ± 0.064 |
| RFRLSPAARNILEKHSLDASQGTATGPRGIFTKEDALKLVQLEQTGK [K43E] | -0.395 ± 0.1 |
| RFRLSPAARNILEKHSLDASQGTATGPRGIFTKEDELKLVQLKQTGK [A36E] | -0.317 ± 0.093 |
| RFRLSPAARNILEKHSLDASQGTATGPRGIFTKIDALKLVQLKQTGK [E34I] | -0.615 ± 0.29 |
| RFRLSPAARNILEKHSLDASQGTATGPRGIFTKDDALKLVQLKQTGK [E34D] | -0.058 ± 0.047 |
| RFRLSPAARNILEKHSLDASQGTATGPRGIFTKMDALKLVQLKQTGK [E34M] | -0.536 ± 0.096 |
| RFRLSPAARNILEKHSLDASQGTAVGPRGIFTKEDALKLVQLKQTGK [T25V] | -0.476 ± 0.077 |
| RFRLSPAARNILEKHSLDASQGTARGPRGIFTKEDALKLVQLKQTGK [T25R] | -0.563 ± 0.053 |
| RFRLSPAARNILEKVSLDASQGTATGPRGIFTKEDALKLVQLKQTGK [H15V] | -0.506 ± 0.053 |
| RFRLSPAARNILEKESLDASQGTATGPRGIFTKEDALKLVQLKQTGK [H15E] | -0.138 ± 0.064 |
| RFRLSPAARNILEKQSLDASQGTATGPRGIFTKEDALKLVQLKQTGK [H15Q] | -0.341 ± 0.05 |
| RFRLSPAARNILEKHSLDASQGTATGPRVIFTKEDALKLVQLKQTGK [G29V] | -0.807 ± 0.067 |

| Variant | abundance fitness |
| --- | --- |
| RFRLSPAARNILEKHSLDASQGTATGPRPIFTKEDALKLVQLKQTGK [G29P] | -0.569 ± 0.071 |
| RFRLSPAARNILEKHSLDASQGTATGPRNIFTKEDALKLVQLKQTGK [G29N] | -0.395 ± 0.11 |
| RFRLSPAARNILEKHSLDASCGTATGPRGIFTKEDALKLVQLKQTGK [Q21C] | -0.167 ± 0.059 |
| RFRLSPAARNILEKHSLDASVGTATGPRGIFTKEDALKLVQLKQTGK [Q21V] | -0.31 ± 0.049 |
| RFRLSPAARNILEKHSLDASQGTATGPRGIFTKEDALKLVQLKQFGK [T45F] | -0.147 ± 0.25 |
| RFRLSPAARNILEKHSLDASQGTATGPRGIFTKEDALKLVQLKQPGK [T45P] | -0.333 ± 0.11 |
| RFRLSPAARNILEKHSLDASQGTATGPRGIFTKEDALKLVQLKQLGK [T45L] | -0.146 ± 0.09 |
| RFRLSPAARNILEKHSLDASQGTATGPRGIFTKEDALKSVQLKQTGK [L39S] | -0.127 ± 0.065 |
| RFRLSPAARNILEKHSLDASQGTATGPRGIFTKEDALKHVQLKQTGK [L39H] | -0.271 ± 0.066 |
| RFRLSPAARNILEKHSLDASQGTATGPRGIFTKEDALKTVQLKQTGK [L39T] | -0.505 ± 0.16 |
| RFRLSPDARNILEKHSLDASQGTATGPRGIFTKEDALKLVQLKQTGK [A7D] | -0.211 ± 0.11 |
| RFRLSPSARNILEKHSLDASQGTATGPRGIFTKEDALKLVQLKQTGK [A7S] | -0.078 ± 0.052 |
| RFRLSPRARNILEKHSLDASQGTATGPRGIFTKEDALKLVQLKQTGK [A7R] | -0.222 ± 0.047 |
| RFRLSPKARNILEKHSLDASQGTATGPRGIFTKEDALKLVQLKQTGK [A7K] | -0.187 ± 0.046 |
| RFALSPAARNILEKHSLDASQGTATGPRGIFTKEDALKLVQLKQTGK [R3A] | -0.504 ± 0.061 |
| RFILSPAARNILEKHSLDASQGTATGPRGIFTKEDALKLVQLKQTGK [R3I] | 0.367 ± 0.097 |
| RFRLSPAARNILEKHSLKASQGTATGPRGIFTKEDALKLVQLKQTGK [D18K] | 0.086 ± 0.088 |
| RFRLSPAARNILEKHSLAASQGTATGPRGIFTKEDALKLVQLKQTGK [D18A] | -0.591 ± 0.11 |
| RFRLSHAARNILEKHSLDASQGTATGPRGIFTKEDALKLVQLKQTGK [P6H] | -0.367 ± 0.087 |
| RFRLSCAARNILEKHSLDASQGTATGPRGIFTKEDALKLVQLKQTGK [P6C] | -0.004 ± 0.091 |
| RFRLSTAARNILEKHSLDASQGTATGPRGIFTKEDALKLVQLKQTGK [P6T] | -0.093 ± 0.073 |
| RFRLSPAARNILEHHSLDASQGTATGPRGIFTKEDALKLVQLKQTGK [K14H] | -0.164 ± 0.079 |
| RFRLSPAARNILEGHSLDASQGTATGPRGIFTKEDALKLVQLKQTGK [K14G] | -0.142 ± 0.044 |
| RFRLSPAARNILETHSLDASQGTATGPRGIFTKEDALKLVQLKQTGK [K14T] | 0.049 ± 0.05 |
| RFRLSPAARNILEFHSLDASQGTATGPRGIFTKEDALKLVQLKQTGK [K14F] | -0.146 ± 0.11 |
| RFRLSPAARNILEWHSLDASQGTATGPRGIFTKEDALKLVQLKQTGK [K14W] | -0.474 ± 0.064 |
| RFRLSPAARNILEQHSLDASQGTATGPRGIFTKEDALKLVQLKQTGK [K14Q] | 0 ± 0.075 |
